Measurements: patent US20160304625A1

Key:
[1] = target: mIgM proximal domain peptide conjugated to keyhole limpet hemocyanin (human); assay: competition ELISA on mIgM-PD-KLH, competitor unlabeled mAb 4
[2] = target: mIgM proximal domain peptide conjugated to keyhole limpet hemocyanin (human); assay: competition ELISA on KLH-mIgM-PD, competitor unlabeled mAb 3
[3] = target: mIgM proximal domain peptide conjugated to keyhole limpet hemocyanin (human); assay: competition ELISA on KLH-mIgM-PD, competitor unlabeled mAb 2
[4] = target: mIgM proximal domain peptide conjugated to keyhole limpet hemocyanin (human); assay: competition ELISA on mIgM-PD-KLH, competitor unlabeled mAb 2
[5] = target: mIgM proximal domain peptide conjugated to keyhole limpet hemocyanin (human); assay: competition ELISA on KLH-mIgM-PD, competitor unlabeled mAb 1
[6] = target: mIgM proximal domain peptide conjugated to keyhole limpet hemocyanin (human); assay: competition ELISA on mIgM-PD-KLH, competitor unlabeled mAb 3
[7] = target: mIgM proximal domain peptide conjugated to keyhole limpet hemocyanin (human); assay: competition ELISA on KLH-mIgM-PD, competitor unlabeled mAb 4
[8] = target: mIgM proximal domain peptide conjugated to keyhole limpet hemocyanin (human); assay: ELISA, KLH-PDm
[9] = target: mIgM proximal domain peptide conjugated to keyhole limpet hemocyanin (human); assay: competition ELISA on mIgM-PD-KLH, competitor unlabeled mAb 1
[10] = target: mIgM proximal domain peptide conjugated to keyhole limpet hemocyanin (human); assay: ELISA direct binding, mIgM-PD-KLH

mAb-HRP binding after blocking by unlabeled mAb [1]: 9 | mAb-HRP binding after blocking by unlabeled mAb [2]: 72 | mAb-HRP binding after blocking by unlabeled mAb [3]: 68 | mAb-HRP binding after blocking by unlabeled mAb [4]: 71 | mAb-HRP binding after blocking by unlabeled mAb [5]: 74 | mAb-HRP binding after blocking by unlabeled mAb [6]: 62 | mAb-HRP binding after blocking by unlabeled mAb [7]: 14 | ELISA reading [8]: 0.9 | mAb-HRP binding after blocking by unlabeled mAb [9]: 52 | ELISA reading [10]: 0.5
B1: monoclonal antibody mAb4-2b (antibody, mouse IgG1, V domains shown)
VH: EVQLEESGAELVKPGASLKLSCKASGYTFTSYWMNWVKQRPGQGLEWIGIIHPNSGSTNYNEKFKTKATLTVDKSSSTAYMQLSSLTSEDSAVYYCARTRGNYGMDYWGQGTSVTVSS
VL: DIVMTQSHKFMSTSVGDRVSITCKASQDVSTAVAWYQQKPGQSPTLLIYSASYRNTGVPDRFTGSGSGTDFTFTISSVQAEDLAVYYCQQHFSIPPLTFGAGTKLELKR
